Assay results taken from patent publication US10363214B2, “Method for treating atrophic age related macular degeneration” (Allergan, Inc., priority 2008, dated 2019).

Legend:
[1] = 1.25 to 2.5 mg aqueous bevacizumab into the vitreous cavity; animal and human studies; cited from earlier work
ARPE-19 cells = experiment: ARPE-19 cell viability (MTT) assay with polysorbate 80; assay type: cell-based
Procedure: An experiment was carried out to examine the toxicity of a polysorbate retinal penetrant enhancer to retinal pigment epithelial (“RPE”) cells. Thus, ARPE-19 cells (see Dunn K. et al., ARPE-19, a human retinal pigment epithelial cell line with differentiated properties, Exp Eye Res. 1996 Feb;62(2):155-69) were incubated in vitro in concentrations of polysorbate 80 ranging from 0% to 0.10% w/w and a cell viability assay was performed.
The protocol for this in vitro experiment was as follows: ARPE-19 cells (passage 11 to 23) were seeded the day prior to experimentation in 24 well-plates at 125.000 cells/well in DMEM:F12 medium supplemented with 10% FBS. Time course and dose response were simultaneously performed on ARPE-19 cells. Parameters of incubating solutions such as pH, osmolarity were measured for every concentration. Times of incubation were 24 h, 48 h, 72 h. One negative (non-treated) and one positive control (5 mM H2O2) were included. Non-treated condition was cell culture medium supplemented with serum. 5 mM H2O2 was prepared from 3% H2O2 stock solution (875 mM). Concentrations applied to cells were determined considering several parameters, such as • (a) commonly used concentration in formulation. • (b) limiting concentration to compound solubility. • (c) limiting concentration to applicable viscosity, osmolarity and pH values. In a first approach, the concentrations covered a wide range (Exp.1). After preliminary results, a second set of experiments (Exp.2 to 4) determined more accurately compound concentrations leading to inhibition of 50% of cell viability, based on cell viability assay and morphological aspect. […] Results from MTT assay were expressed as a percentage of cell viability calculated as follows: % cell viability=ODtest/ODcontrol×100. […] Gap concentration bringing to 50% cell viability was therefore determined. Morphological appearance was analyzed by semi-quantitative scoring ranging from 5 to 1, from normal to lethal phenotype respectively.

wet AMD eye = experiment: Monthly intravitreal injections in wet AMD eye of patient (paper case examples); assay type: in vivo, human
Description: A person has age-related macular degeneration and cataracts in both eyes. […] The patient can complain of blurry vision and metamorphopsia in the right eye and examination can reveal visual acuity of 20/400 right eye, 20/32 left eye. Retinal examination can show subfoveal choroidal neovascularization (CNV) (right eye wet AMD) approximately 1 disc area in size with surrounding hemorrhage and edema in the right eye. The fellow left eye can show high-risk features for developing wet AMD such as soft, amorphic appearing drusen that included the fovea but no signs of choroidal neovascularization and can be confirmed by fluorescein angiography (left eye dry AMD).
A person can wake up with blurry vision in the left eye. They can have a history of glaucoma, s/p cataract removal with IOLs (intraocular lenses), and dry AMD in both eyes and can be taking Alphagan P eye drops. The patient's ophthalmologist can examine them and they can be diagnosed with left eye wet AMD and sent immediately to a retinal specialist. The vision can be 20/25 in the right eye and 20/200 in the left eye. Retinal examination can show dry changes in the right eye macula but high risk features such as large drusen and numerous pigmentary changes in the subfoveal region. The left eye macula can show a subfoveal CNV approximately 2 disc areas in size with surrounding macular edema and intraretinal hemorrhages. Fluorescein angiography can confirm the presence of left eye CNV predominantly classic in appearance. […] Since the patient was at high risk for developing CNV in their right eye, and the vision in the left eye may not appreciably improve over the 3 month period, they can receive an intravitrea injection into the right eye of 50 ul comprising 4.8 mg of ranibizumab incorporated into PLGA microspheres, to prophylax against the development of CNV in the right eye. Polysorbate 20 PLGA microspheres with an in vitro release rate of 5 ug/day can also be placed in the formulation to enhance retinal permeability. The microspheres can be placed in a partially cross-linked hyaluronic acid (HA) at a HA concentration of 2.1%. Such a cross-linked HA can be obtained from Allergan Medical (Irvine, Calif.) under the brand names Juvederm Ultra Plus, Juvederm 30, Captique, and Voluma.

In the case of bevacizumab, the intraocular toxicity [1] is listed as “without significant intraocular toxicity”.

For polysorbate 80, the “polysorbate 80 concentrations associated with declining RPE cell viability” value (ARPE-19 cells; ARPE-19 cells, 24, 48 and 72 h incubation, also printed as 0.6 mg/ml, FIG. 1) was “over 0.06%”, the “polysorbate 80 concentrations associated with cell viabilities of less than 50%” value (ARPE-19 cells; ARPE-19 cells, 24, 48 and 72 h incubation, also printed as 0.9 mg/ml, FIG. 1) was greater than 0.09% and the “total maximum weight of polysorbate in the vitreous at one time” value (ARPE-19 cells; assuming a vitreous volume of 4 ml in a human eye) was no more than 3.6 mg.

B1: ranibizumab (antibody, chains of the INN, looked up, V domains shown)
VH: EVQLVESGGGLVQPGGSLRLSCAASGYDFTHYGMNWVRQAPGKGLEWVGWINTYTGEPTYAADFKRRFTFSLDTSKSTAYLQMNSLRAEDTAVYYCAKYPYYYGTSHWYFDVWGQGTLVTVSS
VL: DIQLTQSPSSLSASVGDRVTITCSASQDISNYLNWYQQKPGKAPKVLIYFTSSLHSGVPSRFSGSGSGTDFTLTISSLQPEDFATYYCQQYSTVPWTFGQGTKVEIK
modifications: Fab
For B1, the “edema and hemorrhage, right wet AMD eye” value (wet AMD eye; Example 1, within 4 months) was “resolution of the edema and hemorrhage”, the “visual acuity, right wet AMD eye” value (wet AMD eye; Example 1, within 4 months, baseline 20/400) was 20/125 and the “left eye visual acuity (wet AMD eye)” value (wet AMD eye; Example 3, 3 month period, baseline 20/200) was 20/100. For the same molecule, the “retinal edema, left wet AMD eye” value (wet AMD eye; Example 3, over a 3 month period) was “resolution of the retinal edema”.
